# B1: Arabidopsis thaliana 14-3-3 omicron (natural protein, UniProt Q9S9Z8 1-252, looked up)
# chain: MENERAKQVYLAKLNEQAERYDEMVEAMKKVAALDVELTIEERNLLSVGYKNVIGARRASWRILSSIEQKEESKGNEQNAKRIKDYRTKVEEELSKICYDILAVIDKHLVPFATSGESTVFYYKMKGDYFRYLAEFKSGADREEAADLSLKAYEAATSSASTELSTTHPIRLGLALNFSVFYYEILNSPERACHLAKRAFDEAIAELDSLNEDSYKDSTLIMQLLRDNLTLWTSDLEEGGEQSKGHNQQDEN
# notes: 14-3-3 omicron, Arabidopsis thaliana, epsilon group; construct provided by Prof; Robert J. Ferl; source: E. coli C41(DE3), purified (IMAC, thrombin cleavage of the His6-tag, subtractive IMAC, preparative SEC; aliquots before preparative SEC for SEC-MALS)
# Molecular target: the molecule itself
# Test: SEC-MALS; Superdex 200 Increase 10/300, 0.8 ml/min; 65 µl of ~3 mg/ml or 100 μM per monomer loaded; 20 mM Tris-HCl pH 7.5, 150 mM NaCl, 5 mM βME, 3 mM NaN3; samples before preparative SEC; self-association, monomers to dimer (small tetramer peak for six isoforms)
protein,measurement,value
B1,stoichiometry N,2
